Data from the supplement of paper PMC10567573.
± gives the standard deviation.

Experiment: protein stability index of a GFP-peptide fusion (GPS, HEK-293T) (PSI 1-6); higher = more stable
Conditions: c terminus: a fixed tail appended
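Also: 24-mer peptide tiles fused after GFP, lentivirally expressed, FACS-sorted into six equal bins by GFP/DsRed ratio, decoded by Illumina sequencing, PSI is the read-weighted mean bin number.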

Sequence | protein stability index (treatment: DMSO) | protein stability index (treatment: MLN4924 1 uM, 8 h)
PHIEEQQKKIESYLHNHFIGEGMT [TENT5D] | 3.35 ± 0.33 | 3.59 ± 0.27
ETVPWFPKKISDLDHCANRVLMYG [TPH1] | 2.38 ± 0.24 | 2.46 ± 0.26
